Measurements published in US20200148781A1 (HELMHOLTZ ZENTRUM M NCHEN DEUTSCHES FORSCHUNGSZENTRUM F R …, published 2020).

Biological target: T1, CD73 protein from lysates of U138 glioblastoma cells (human, UniProt P21589 27-549)
T1 construct: Same endogenous protein as m2, but solubilised in cell lysate for immunoprecipitation
T1 sequence (looked up): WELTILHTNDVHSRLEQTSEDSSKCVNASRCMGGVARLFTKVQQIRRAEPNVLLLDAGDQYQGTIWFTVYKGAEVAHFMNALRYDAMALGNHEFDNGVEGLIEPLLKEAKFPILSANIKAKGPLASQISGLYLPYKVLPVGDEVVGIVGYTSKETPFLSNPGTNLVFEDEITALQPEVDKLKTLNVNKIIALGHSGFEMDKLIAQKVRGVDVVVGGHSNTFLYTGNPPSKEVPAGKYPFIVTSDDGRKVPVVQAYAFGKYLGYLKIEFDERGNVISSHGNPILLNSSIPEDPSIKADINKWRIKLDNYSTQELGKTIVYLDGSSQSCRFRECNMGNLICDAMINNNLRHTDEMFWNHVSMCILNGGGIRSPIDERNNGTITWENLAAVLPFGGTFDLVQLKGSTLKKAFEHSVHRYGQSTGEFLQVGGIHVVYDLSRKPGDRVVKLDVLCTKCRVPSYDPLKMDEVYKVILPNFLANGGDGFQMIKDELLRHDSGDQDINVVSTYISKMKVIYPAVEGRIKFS
Assay: immunoprecipitation from cell lysate, immunoblot with a commercial CD73 mAb
Method: In this example, mAb 22E6 binding affinity was characterized (FIG. 3). It was shown that mAb 22E6 recognizes CD73 protein on cancer cells. Using a special flow cytometry technique, a fluorescence-activated cell sorting (FACS) with 22E6 and an anti-rat-IgG-specific, fluorophore-labeled secondary mAb, it was shown that the protein recognized by the 22E6 mAb of the invention is present on the surface of human cancer cells of a total of approx. 30 tested cell lines. U138 MG and GBM20 are glioblastoma cell lines, MDA-MB231 and T47D are human breast cancer cell lines. In order to compare the specificity of mAb 22E6 with the specificity of a commercial CD73 mAb an immunoblot with the same cell lines (U138 MG, GBM20, MDA-MB231 and T47D) was performed using the commercial CD73 mAb as shown in FIG. 3B.

- binding result: binds
B1: mAb 22E6 (antibody, V domains shown)
VH: EVQLVESGGGLVQPGRSMKLSCAASGFTFSFYYMAWVRQAPTKGLEWVASISTGGGNTYYRDSVKGRFTISRDDAKSTLYLQMDSLRSEETATYYCARHGGDYYGYRGGYFDYWDQGVMVTVSS
VL: DIQMTQTPSSMPASLGERVTISCRASQGINNYLNWYQQKPDGTIKPLIYYTSNLQSGVPSRFSGSGSGTDYSLTISSLEPEDFAMYYCQQYDNSPYTFGAGTKLELK
notes: Rat monoclonal antibody from a hybridoma (rats immunized with EVs of the glioblastoma line GBM20); It was detected with an anti-rat-IgG secondary mAb; also called 22E6 mAb; monoclonal antibody termed "22E6"
